Where a chain is given by its changes, count along the chain named.
Assays:
Pti5 [1] = biological target: T1, Pti5 (Lycopersicon esculentum, UniProt O04681 SEQ:1-161); assay: EMSA; 4 fmol probe, poly(dA-dT), 25 mM Hepes pH 7.5, 40 mM KCl, room temperature; settings: tags: GST fusion (pGEX), E. coli PR745; label: 32P end label
Method: (§1) The wild type gln2 PR-box 2× ([…] […])(SEQ ID NO:17) and mutated PR-box 2× ([…] […]) (SEQ ID NO:18) were end-labeled by 32P as described by Ausubel, F. M., Brent, R., Kingston, R. E., Moore, D. D., Seidman, J. G., Smith, J. A., and Struhl, K. (1994). Current Protocols in Molecular Biology. (New York: Greene Publish Associates/John Wiley and Sons). Four fmol of probe was mixed with each of the purified GST-fusion proteins in a buffer containing 2 μg poly(dA-dT) (dA-dT), 25 mM Hepes (PH7.5), 40 mM KCl, 0.1 mM EDTA, 10% glycerol, and 1 mM DTT, incubated at room temperature for 15 minutes, and electrophoresed on a 4% polyacrylamide gel in 0.25×TBE buffer. Ohme-Takagi, M. and Shinshi, H. (1995). Ethylene-inducible DNA-binding proteins that interact with an ethylene-responsive element. Plant Cell 7, 173–182. The gel was subsequently dried and exposed to x-ray film. […] In contrast to GST-Pti5 and GST-Pti6, neither GST-Pti1 nor GST itself bound to the PR-box.

Pti6 [2] = biological target: T2, Pti6 (Lycopersicon esculentum, UniProt O04682 SEQ:1-248); assay: as above; settings: tags: GST fusion (pGEX), E. coli PR745; label: 32P end label
Method: as §1

GST = GST (UniProt P08515 P08515:1-218); assay: EMSA; negative control protein; settings: tags: GST alone; label: 32P end label
Method: as §1

Pti1 = biological target: T3, Pti1 (Lycopersicon esculentum, UniProt Q41328 Q41328:1-354); assay: EMSA; negative control protein; settings: tags: GST fusion; label: 32P end label
T3 sequence: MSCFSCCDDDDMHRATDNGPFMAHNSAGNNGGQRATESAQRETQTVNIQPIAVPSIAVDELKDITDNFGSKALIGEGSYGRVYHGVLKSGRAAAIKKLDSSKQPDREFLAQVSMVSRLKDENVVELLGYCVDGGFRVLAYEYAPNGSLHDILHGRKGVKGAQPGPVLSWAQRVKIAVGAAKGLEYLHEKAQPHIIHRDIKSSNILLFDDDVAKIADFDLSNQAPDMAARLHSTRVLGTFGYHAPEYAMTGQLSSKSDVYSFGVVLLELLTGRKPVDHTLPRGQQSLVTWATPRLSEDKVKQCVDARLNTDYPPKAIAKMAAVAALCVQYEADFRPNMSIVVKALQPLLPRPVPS
Method: as §1

Pti5 [3] = biological target: T1, Pti5; assay: EMSA; no binding detected; same buffer; settings: tags: GST fusion (pGEX), E. coli PR745; label: 32P end label
Method: as §1

Pti6 [4] = biological target: T2, Pti6; assay: EMSA; no binding detected; same buffer; settings: tags: GST fusion (pGEX), E. coli PR745; label: 32P end label
Method: as §1

T2 sequence (O04682 whole entry, the tested form may be a part): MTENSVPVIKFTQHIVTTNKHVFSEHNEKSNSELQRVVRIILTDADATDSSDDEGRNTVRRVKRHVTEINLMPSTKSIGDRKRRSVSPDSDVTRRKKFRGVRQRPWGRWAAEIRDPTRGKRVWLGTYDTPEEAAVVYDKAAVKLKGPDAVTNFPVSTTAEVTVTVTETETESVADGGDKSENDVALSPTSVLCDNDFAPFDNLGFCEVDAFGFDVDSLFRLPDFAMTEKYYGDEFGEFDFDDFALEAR
T1 sequence (O04681 other isoform, or with tags, fused parts or gaps): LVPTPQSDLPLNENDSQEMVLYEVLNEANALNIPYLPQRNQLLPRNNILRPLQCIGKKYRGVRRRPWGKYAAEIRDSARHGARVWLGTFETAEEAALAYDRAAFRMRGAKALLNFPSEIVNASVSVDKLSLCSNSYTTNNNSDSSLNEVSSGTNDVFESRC
Chain of GST (P08515 whole entry, one chain of several): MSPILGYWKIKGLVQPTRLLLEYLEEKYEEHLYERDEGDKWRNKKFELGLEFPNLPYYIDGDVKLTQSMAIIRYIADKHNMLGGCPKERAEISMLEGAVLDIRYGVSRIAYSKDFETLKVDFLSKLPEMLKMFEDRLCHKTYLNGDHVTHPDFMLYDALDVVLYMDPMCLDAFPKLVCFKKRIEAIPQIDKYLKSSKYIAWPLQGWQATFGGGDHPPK

B1: wild type gln2 PR-box 2x (dsDNA)
DNA 1: CATAAGAGCCGCCACTAAAATAAGACCGATCAAATAAGAGCCGCCAT
DNA 2: ATGGCGGCTCTTATTTGATCGGTCTTATTTTAGTGGCGGCTCTTATG
B1: binds (Pti5 [1]); binds (Pti6 [2]); no binding (GST). B1: no binding (Pti1).

B2: mutated PR-box 2x (dsDNA)
DNA 1: B1 DNA 1 with G8T, G11T, G40T, G43T
DNA 2: B1 DNA 2 with C5A, C8A, C37A, C40A
B2: no binding (Pti5 [3]); no binding (Pti6 [4]).
